{
  "source": "paper PMC5037378",
  "biological_target": "Aggrecan (UniProt P13608)",
  "sequence (P13608 17-2364)": "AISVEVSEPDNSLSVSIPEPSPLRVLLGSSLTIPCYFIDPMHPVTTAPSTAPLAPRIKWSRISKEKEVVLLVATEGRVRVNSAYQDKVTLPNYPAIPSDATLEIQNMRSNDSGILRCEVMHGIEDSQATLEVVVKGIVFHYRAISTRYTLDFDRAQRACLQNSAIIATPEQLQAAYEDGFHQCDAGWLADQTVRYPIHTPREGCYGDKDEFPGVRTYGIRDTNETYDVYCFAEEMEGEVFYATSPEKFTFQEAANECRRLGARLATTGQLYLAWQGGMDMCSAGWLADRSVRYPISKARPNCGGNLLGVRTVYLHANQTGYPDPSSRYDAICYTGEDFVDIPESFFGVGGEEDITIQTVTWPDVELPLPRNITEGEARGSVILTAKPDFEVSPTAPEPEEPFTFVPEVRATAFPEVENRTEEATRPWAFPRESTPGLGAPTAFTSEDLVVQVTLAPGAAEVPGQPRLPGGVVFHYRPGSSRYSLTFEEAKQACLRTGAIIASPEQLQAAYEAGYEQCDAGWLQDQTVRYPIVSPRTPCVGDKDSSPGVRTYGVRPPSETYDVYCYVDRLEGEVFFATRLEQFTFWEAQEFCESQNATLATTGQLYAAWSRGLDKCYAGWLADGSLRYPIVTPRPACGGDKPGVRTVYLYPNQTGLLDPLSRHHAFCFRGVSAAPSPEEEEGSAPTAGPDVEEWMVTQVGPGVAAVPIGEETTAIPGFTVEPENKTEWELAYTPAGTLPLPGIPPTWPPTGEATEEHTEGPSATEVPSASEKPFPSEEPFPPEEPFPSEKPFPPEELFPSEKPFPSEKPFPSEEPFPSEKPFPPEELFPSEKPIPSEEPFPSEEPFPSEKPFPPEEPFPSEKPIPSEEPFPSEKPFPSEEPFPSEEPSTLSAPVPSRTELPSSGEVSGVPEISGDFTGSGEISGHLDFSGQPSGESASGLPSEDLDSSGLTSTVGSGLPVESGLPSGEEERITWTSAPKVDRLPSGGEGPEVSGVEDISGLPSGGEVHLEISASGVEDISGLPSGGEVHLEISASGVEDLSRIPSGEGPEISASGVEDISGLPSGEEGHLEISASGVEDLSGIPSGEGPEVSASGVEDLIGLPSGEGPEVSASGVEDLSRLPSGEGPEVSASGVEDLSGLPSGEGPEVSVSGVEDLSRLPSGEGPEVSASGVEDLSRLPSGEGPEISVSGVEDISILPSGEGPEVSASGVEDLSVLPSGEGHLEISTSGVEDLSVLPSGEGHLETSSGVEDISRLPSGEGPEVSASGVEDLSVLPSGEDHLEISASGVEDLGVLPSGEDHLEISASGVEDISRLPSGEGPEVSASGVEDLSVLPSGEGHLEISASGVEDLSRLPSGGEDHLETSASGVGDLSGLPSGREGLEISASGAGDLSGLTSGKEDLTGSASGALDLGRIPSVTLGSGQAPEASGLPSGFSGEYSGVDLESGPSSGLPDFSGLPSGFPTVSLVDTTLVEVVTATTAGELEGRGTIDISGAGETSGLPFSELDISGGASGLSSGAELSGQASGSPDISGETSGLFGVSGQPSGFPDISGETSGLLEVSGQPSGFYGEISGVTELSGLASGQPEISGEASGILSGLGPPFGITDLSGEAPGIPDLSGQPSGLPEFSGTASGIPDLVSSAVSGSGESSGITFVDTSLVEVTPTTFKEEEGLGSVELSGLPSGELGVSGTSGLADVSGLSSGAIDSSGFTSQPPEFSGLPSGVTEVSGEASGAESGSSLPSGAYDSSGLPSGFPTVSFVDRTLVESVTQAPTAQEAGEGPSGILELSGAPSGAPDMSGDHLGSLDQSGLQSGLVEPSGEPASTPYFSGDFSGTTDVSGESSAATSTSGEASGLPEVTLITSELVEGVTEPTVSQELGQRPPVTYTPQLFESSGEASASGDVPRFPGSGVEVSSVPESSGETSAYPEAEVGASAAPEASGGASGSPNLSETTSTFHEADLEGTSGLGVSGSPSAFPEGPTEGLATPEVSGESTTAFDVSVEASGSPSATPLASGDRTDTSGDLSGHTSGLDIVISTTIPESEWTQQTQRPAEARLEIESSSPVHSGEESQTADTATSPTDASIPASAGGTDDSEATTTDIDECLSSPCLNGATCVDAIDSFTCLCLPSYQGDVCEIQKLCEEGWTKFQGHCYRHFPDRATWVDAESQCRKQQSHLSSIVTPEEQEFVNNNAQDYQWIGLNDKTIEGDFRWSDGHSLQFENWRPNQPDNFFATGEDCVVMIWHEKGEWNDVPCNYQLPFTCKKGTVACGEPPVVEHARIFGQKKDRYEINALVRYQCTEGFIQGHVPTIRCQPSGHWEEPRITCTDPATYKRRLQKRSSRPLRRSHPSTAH",
  "experiment": "solid phase binding assay (ELISA-type, HRP anti-human IgG Fc, OPD colorimetric)",
  "settings": "PTPσ-Fc 80 nM, wells coated with aggrecan 10 μg/ml, read off a plot",
  "data": [
    {"substance": "PTPσ (protein tyrosine phosphatase sigma) N-terminal extracellular part with the three Ig domains, Fc-tagged, wild type (from UniProt B0V2N1) PTPσ mutant (lacks the CS binding site; substitutions not printed)", "values": [
      {"measurement": "response", "setting": "HB-GAM 0 nM, parent: est. 1.2", "result": 0.081, "unit": "A450"},
      {"measurement": "response", "setting": "HB-GAM 10 nM, parent: est. 0.88", "result": 0.085, "unit": "A450"},
      {"measurement": "response", "setting": "HB-GAM 20 nM, parent: est. 0.64", "result": 0.085, "unit": "A450"},
      {"measurement": "response", "setting": "HB-GAM 40 nM, parent: est. 0.43", "result": 0.084, "unit": "A450"},
      {"measurement": "response", "setting": "HB-GAM 80 nM, parent: est. 0.31", "result": 0.083, "unit": "A450"},
      {"measurement": "response", "setting": "HB-GAM 160 nM, parent: est. 0.25", "result": 0.083, "unit": "A450"},
      {"measurement": "response", "setting": "HB-GAM 320 nM, parent: est. 0.23", "result": 0.084, "unit": "A450"}
    ]}
  ]
}
